Laboratory results: US20260216362A1, “ANTI-BDCA2 ANTIBODY-DRUG CONJUGATE AND USE THEREOF” (DUALITY BIOLOGICS (SHANGHAI) CO., LTD., priority 2022, published 2026)

T1: cynomolgus monkey BDCA2 expressed on 293F cells (cynomolgus monkey, UniProt A0A2K5UWP4 1-212)
T1 construct: whole, on cells
T1 sequence: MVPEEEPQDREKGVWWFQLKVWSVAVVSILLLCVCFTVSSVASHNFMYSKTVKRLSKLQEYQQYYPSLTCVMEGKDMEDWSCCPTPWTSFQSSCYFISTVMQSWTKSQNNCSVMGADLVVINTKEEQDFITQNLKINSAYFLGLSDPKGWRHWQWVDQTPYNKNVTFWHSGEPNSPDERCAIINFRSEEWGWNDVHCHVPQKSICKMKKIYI

T2: human BDCA2 expressed on CHOK1 cells (human, UniProt Q8WTT0 1-213)
T2 construct: whole, on cells; also called CHOK1-hBDCA2; CHOK1-humanBDCA2
T2 sequence (looked up): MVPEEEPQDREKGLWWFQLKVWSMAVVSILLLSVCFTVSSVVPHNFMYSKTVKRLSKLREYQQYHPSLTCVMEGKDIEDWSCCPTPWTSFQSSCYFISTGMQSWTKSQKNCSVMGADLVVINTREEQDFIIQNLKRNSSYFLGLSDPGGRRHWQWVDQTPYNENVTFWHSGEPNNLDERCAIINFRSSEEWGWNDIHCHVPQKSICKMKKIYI

T3: Human BDCA2 Fc recombinant protein (human, UniProt Q8WTT0 45-213)
T3 construct: also called HumanBDCA2 Fc protein; not shown: The N-terminal human IgG1 Fc fragment and the linker
T3 sequence: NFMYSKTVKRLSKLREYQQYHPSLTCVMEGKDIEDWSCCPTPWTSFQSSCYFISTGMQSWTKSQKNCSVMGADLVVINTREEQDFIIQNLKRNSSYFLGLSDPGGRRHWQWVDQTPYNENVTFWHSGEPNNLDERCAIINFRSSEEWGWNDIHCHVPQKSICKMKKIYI

B1: Hu033-03 (antibody, human IgG1, kappa, V domains shown)
VH: EVQLVESGGGLVKPGGSLRLSCAASGFTFSSYGMSWVRQAPGKGLEWVSTISSGDSYTYYPDSVKGRFTISRDNAKNSLYLQMNSLRAEDTAVYYCARQIYYDYAYYFDFWGQGTTVTVSS
VL: DIVLTQSPASLAVSPGQRATITCRASESVSFRTSHLMHWYQQKPGQPPKLLIYGASNLESGVPARFSGSGSETDFTLTINPVEAEDTANYFCQQSIEDPPTFGGGTKVEIKR
notes: Humanized IgG1; also called Hu033-03(BM3)
B2: Hu033-03-ADC (antibody, human IgG1, kappa, V domains shown)
VH: EVQLVESGGGLVKPGGSLRLSCAASGFTFSSYGMSWVRQAPGKGLEWVSTISSGDSYTYYPDSVKGRFTISRDNAKNSLYLQMNSLRAEDTAVYYCARQIYYDYAYYFDFWGQGTTVTVSS
VL: DIVLTQSPASLAVSPGQRATITCRASESVSFRTSHLMHWYQQKPGQPPKLLIYGASNLESGVPARFSGSGSETDFTLTINPVEAEDTANYFCQQSIEDPPTFGGGTKVEIKR
modifications: Compound 9 (glucocorticoid linker-payload) coupled to cysteine sulfhydryls after TCEP reduction, positions not given; average 4.01 per antibody by HIC
notes: also called Hu033-03 antibody-drug conjugate; BDCA2-ADC
B3: BIIB059 (antibody, human IgG1, kappa, V domains shown)
VH: DVQLVESGGGLVKPGGSLRLSCAASGFTFSTYTMSWVRQAPGKGLEWVATISPGDSFGYYYPDSVQGRFTISRDNAKNSLYLQMNSLRAEDTAVYYCTRDIYYNYGAWFAYWGQGTLVTVSS
VL: DIQLTQSPSSLSASVGDRVTITCKASQSVDYDGDSYMNWYQQKPGKAPKLLIYAASTLESGVPSRFSGSGSGTDFTLTISSLQPEDFATYYCQQANEDPRTFGQGTKVEIKR
notes: also called positive control antibody BIIB059
B4: mAb019 (antibody)
chain 1: EVKLVESGGDLVQPGGSLKLSCAASGFTFSDYYMYWVRQTPEKRLEWVAYISYSGDSTYYPDTVKGRFTISRDNAKNTLFLQMSRLKSEDTAMYYCARHSPSFPYYFDYWGQGTALTVSS
chain 2: EIVLTQSPAITAASLGQKVTITCSASSSVSYMHWYQQKSGTSPKPWIYEISKLASGVPARFSGSGSGTSYSLTISSMEAEDAAIYYCQLWNYPLITFGGGTNLEIK
B5: mAb001 (antibody)
chain 1: QIQLVQSGPELKKPGETVKISCKASGYTFTDFSMHWVKQAPGKGLKWMGWINTETGEPTYADDFKGRFAFSLETSASTAFLQINNLKNDDTTTYFCSRGGDGHPYWYFAVWGAGTTVTVSS
chain 2: DIVLTQSPASLAVSLGQRATISCRASQSVSTSSYSYMHWYQQKPGQPPKLLIKYASILESGVPARFSGSGSGTDFTLNIHPVEEEDTATYYCQHSWEIPFTFGSGTKLEIK
B6: mAb002 (antibody)
chain 1: QIQLVQSGPELKKPGETVKISCRASGYSFTDYSMHWVKQAPGKGLKWVGWINTETGEPTYADDFKGRFALSLETSATSAYLQINNLKNEDTATYFCARGGDGFPYWYFNVWGAGTTVTVSS
chain 2: DIVLTQSPTSLAVSLGQRTNISCRASQSVSTSSNSYIHWYQQKPGQPPKLLIKYASNLDSGVPARFSGSGSGTDFTLNIHPVEEEDTSTYYCQHSWEIPFTFGSGTKLEIK
B7: mAb020 (antibody)
chain 1: DVQLQESGPGLVKPSQSLSLTCSVTGYSIASGYYWNWIRQFPGNKLEWMGYISFDGTYNYNPSLKDRFSITRDTSKNQFFLKLNSVTTEDTATYYCARGVDYPNAIDWWGQGTSVTVSS
chain 2: DIVLTQSPASLAVSLGQRATISCRASESVSMHVTHLIHWYQQKPGQPPKLLIYVASNLESGVPARFSGSGSETDFTLNIHPVEEEDAATYFCQQSFEDPWTFGGGTKLEIK
B8: mAb024 (antibody)
chain 1: EVQLVESGGDLVKPGGSLKLSCAASGFTFSSFGMSWVRQTPDKRLDWVATISSGDSYTYYPDSVKGRFSISRDNAKNTLYLQMSSLKSEDTAVYYCARQIYYDYAYYFDYWGQGTTLTVSS
chain 2: DIVLTQSPASLAVSLGQRATISCRASESVSFRSSHLMHWYRQKPGQPPKLLIYAASNLESGVPARFSGSGSETDFTLNIHPVEEEDAAAYFCQQSIEDPPTFGGGTKLEIK
B9: mAb022 (antibody)
chain 1: DVQLQESGPGLVKPSQSLSLTCSVTGYSITSGYYWNWIRQFPGNKLEWMGYISFDGTYNYNPSLKDRFSITRDTSKNQFFLKLNSVTTEDTATYYCARGVDYPKAMDWWGQGTSVTVSS
chain 2: DIVLTQSPASLAVSLGQRATISCRASESVSMHVTHLIHWYQQKPGQPPKLLIYVASNLESGVPARFSGSGSETDFTLNIHPVEEEDAATYFCQQSFEDPWTFGGGTKLEIK
B10: mAb005 (antibody)
chain 1: QVQLKQSGPGLVQPSQSLSITCTVSGFSLTNYGVHWVRQSPGKGLEWLGVIWSGESTDYDAAFISRLSISKDNSKSQVFFKMNSLQADDSAIYYCARRRSHYYGYVMDYWGQGTSVTVSS
chain 2: DIVLTQSPASLAVSLGQRATISCKASQSIDYDGIGYLNWYQHKPGQPPKLLIYAASNLESGIPARFSGSGSGTDFTLNIHPVEEEDAATYYCQQSNEDPPTFGSGTKLEIK
B11: mAb016 (antibody)
chain 1: QVQLKQSGPGLVQPSQSLSITCTVSGFSLTSYGVHWVRQSPGKGLEWLGVIWSGESTDYDAAFISRLSISKDNSKSQVFFRMNSLQADDSAIYYCARRRSHYYGYVMDYWGQGTSVTVSS
chain 2: DIVLTQSPASLAVSLGQRATISCKASQSVDYDGVGYLNWYQHKPGQPPKLLIYAASNLESGIPARFSGSGSGTDFTLNIHPVEEEDAATYYCQQSNEDPPTFGSGTKLEIK
B12: mAb021 (antibody)
chain 1: DVQLQESGPGLVKPSQSLSLTCSVTGYSITSAYYWNWIRQFPGNKLECMGYITYDGNNYYSPSLKNRISITRDTSKNQFFLNLNSVTTEDTATYFCARGGDYDDGGFAFWGQGTLVTVSA
chain 2: DIQMTQSPASLSASVGETVTITCRASGNIHNYLAWYHQKQGKSPQLLVYNAKSLVDGVPSRFSGSGSGTQYSLRINSLQPEDFGSYYCQHFWIVPYTFGGGTKLEII
B13: mAb030 (antibody)
chain 1: DVQLQESGPGLVKPSQSLSLTCSVTGYSITSAYYWNWIRQFPGNKLECMGYISYDGSNYYNPSLKNRISITRDTSKNQFFLSLNSVTTEDTATYFCVRGGDYDDGGFAYWGQGTLVTVSA
chain 2: DIQMTQSPASLSASVGETVTITCRASGNIHNYLAWYQQKQGKSPQLLVYNAKTLADGVPSRFSGSGSETQYSLKINSLQPEDFGNYFCQHFWIIPYTFGGGTKLEIK
B14: mAb027 (antibody)
chain 1: DVQLQESGPGLVKPSQSLSLTCSVTGYSITSAYYWNWVRQFPGNQLECMGYITYDGSNNYNPSLKNRISITRDTSKNQFFLKLNSVTTEDTATYYCVRGGDYDDGGFAYWGQGTLVTVSA
chain 2: DIQMTQSPASLSASVGETVTITCRASGNIHNYLAWYQQKQGKSPQLLVYNAKTLVDGVPSRFSGSGSGTEYSLKINSLQPEDFGIYFCQHFWIIPYTFGGGTKLEIR

molecular target: T1, cynomolgus monkey BDCA2 expressed on …; assay: FACS on 293F-cynoBDCA2 cells
Description: (§1) The cells were collected and resuspended to 2×10\hat{ }6 cells/mL in an FACS buffer (PBS+2% FBS). The resuspended cells were added to a 3799 cell plate at 100 μL/well and centrifuged at 300 g, and the supernatant was discarded. […] The cells were resuspended and incubated at 4° C. for 1 h. The incubated cells were centrifuged at 300 g for 5 min and washed twice with the FACS buffer. 100 μL of Goat anti-Human IgG (H+L) Cross-Adsorbed Secondary Antibody, Alexa Fluor 488 (Sigma, A11013; 1:1000) secondary antibody was added. The cells were incubated at 4° C. for 1 h, washed twice with the FACS buffer, and resuspended in PBS. The fluorescence signals of the antibodies for binding to the cell surface were analyzed using an FACS (BD FACS Canto™ II) instrument, curves were fitted using GraphPad Prism6, and EC50 values of the antibodies or antibody-drug conjugates for binding to the BDCA2 antigen were calculated.

Molecule | EC50 [nM]
B1 | 1.91
B2 | 2.36

molecular target: cynomolgus monkey BDCA2 expressed on 293F cells (cynomolgus monkey); assay: FACS on 293F-cynoBDCA2 cells, MFI vs concentration; EC50 from the drawn table (fit of a flat control curve)

Molecule | EC50 [nM]
hIgG1 (antibody) | 584

molecular target: T2, human BDCA2 expressed on CHOK1 cells; assay: FACS on CHOK1-hBDCA2 cells, MFI vs concentration; EC50 from the drawn table (fit of a flat control curve)

Molecule | EC50 [µM]
hIgG1 (antibody) | 160

molecular target: T2, human BDCA2 expressed on CHOK1 cells; assay: FACS on CHOK1-hBDCA2 cells
Description: as §1

Molecule | EC50 [nM]
B1 | 1.23
B2 | 1.6
B3 | 3.29

molecular target: T3, Human BDCA2 Fc recombinant protein; assay: ELISA, coated humanBDCA2 Fc

Molecule | EC50 [nM]
B4 | < 0.3
B5 | < 0.3
B6 | < 0.3
B7 | < 0.3
B8 | < 0.3
B9 | < 0.3
B10 | < 0.3
B11 | < 0.3
B12 | < 0.3
B13 | < 0.3
B14 | < 0.3
